Patent publication CN114395035A (JIANGSU MICKEE MEDICAL TECH CO LTD; INST OF MICROBIOLOGY OF …, dated 2022)

B1: IMCAS-72抗体 (全抗IgG1) (antibody, V domains shown)
VH: QVQLVESGGGLVQPGGSLRLSCAASGFTFSSYGMHWVRQAPGKGLEWVAVISYDGSDKYYADSVKGRFTISRDNSKNTLYLQMNSLRAEDTAVYYCARDRDRFGDQGGWFDPWGQGTLVTVSS
VL: not shown
notes: also called T2线抗体
B2: IMCAS-123抗体 (全抗IgG1) (antibody, V domains shown)
VH: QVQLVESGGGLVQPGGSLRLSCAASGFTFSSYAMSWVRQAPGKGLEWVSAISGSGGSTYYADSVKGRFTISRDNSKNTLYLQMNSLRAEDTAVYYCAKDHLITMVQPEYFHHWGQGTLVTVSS
VL: DIQMTQSPSSVSASVGDSVTITCRASQGISRWLAWYQQRPGKAPKLLIYAAGNLETGVPSRFSGSGSGTDFTLTISDLQAEDFATYYCQQADSFPLTFGGGTKVDIKR
notes: also called T1线抗体
B3: IMCAS-364抗体 (全抗IgG1) (antibody, V domains shown)
VH: QVQLQESGGGVVQPGRSLRLSCAASGFTFSRYGMHWVRQAPGKGLEWVAVIWYDGSNKYYADSVKGRFTISRDNSKNTLYLQMNSLRADDTAVYYCAKQEGTYCSGGSCYSGLDYWGQGTLVTVSS
VL: not shown
notes: also called 金标抗体 (胶体金标记)

How the values were obtained:
[1] = target: T1, Omicron BA.1-RBD (SARS-CoV-2, UniProt P0DTC2 319-541); experiment: lateral-flow sandwich, gold-labelled IMCAS-364 as detector (Table 5)
T1 construct: domain: RBD

[2] = target: T2, Omicron BA.2-RBD (SARS-CoV-2, UniProt P0DTC2 319-541); experiment: lateral-flow sandwich, gold-labelled IMCAS-364 as detector (Table 4)
T2 construct: domain: RBD

[3] = target: T3, SARS-CoV-2 Delta variant RBD蛋白 (SARS-CoV-2, UniProt P0DTC2 319-541); experiment: SPR (Biacore 8K)
T3 construct: domain: RBD

[4] = target: SARS-CoV-2 Beta variant RBD蛋白 (Beta型新型冠状病毒刺突蛋白受体结合域段RBD蛋白) (SARS-CoV-2, UniProt P0DTC2 319-541); experiment: SPR (Biacore 8K)
[5] = target: SARS-CoV-2 Omicron variant RBD蛋白 (Omicron新型冠状病毒RBD蛋白) (SARS-CoV-2, UniProt P0DTC2 319-541); experiment: SPR (Biacore 8K)
[6] = target: T4, SARS-CoV-2 Alpha variant RBD蛋白 (SARS-CoV-2, UniProt P0DTC2 319-541); experiment: SPR (Biacore 8K)
T4 construct: domain: RBD

| Binder | binding result [1] | binding result [2] | Kd [3] | Kd [4] | Kd [5] | Kd [6] |
| --- | --- | --- | --- | --- | --- | --- |
| B1 | no binding (tested: IMCAS-72 2mg/mL on the T2 line) | no binding (tested: IMCAS-72 0.8mg/mL on the T2 line) | 0.62 nM | – | – | – |
| B2 | – | – | 0.48 nM | 0.32 nM | 1.41 nM | 0.15 nM |
| B3 | – | – | – | 1.07 nM | 2.19 nM | 1.06 nM |
